From PMC3516556 come the findings set out here.

The assay deals with FLAG-GluK2 (UniProt P42260). As to the kind of experiment: co-IP; COS-7 cells transfected with combinations of FLAG-GluK2, Neto2 or Neto2Δ7 and GRIP(PDZ4-7)-myc; lysates immunoprecipitated with an anti-GluK2 antibody, western blot.
UniProt P42260, sequence (P42260 32-908): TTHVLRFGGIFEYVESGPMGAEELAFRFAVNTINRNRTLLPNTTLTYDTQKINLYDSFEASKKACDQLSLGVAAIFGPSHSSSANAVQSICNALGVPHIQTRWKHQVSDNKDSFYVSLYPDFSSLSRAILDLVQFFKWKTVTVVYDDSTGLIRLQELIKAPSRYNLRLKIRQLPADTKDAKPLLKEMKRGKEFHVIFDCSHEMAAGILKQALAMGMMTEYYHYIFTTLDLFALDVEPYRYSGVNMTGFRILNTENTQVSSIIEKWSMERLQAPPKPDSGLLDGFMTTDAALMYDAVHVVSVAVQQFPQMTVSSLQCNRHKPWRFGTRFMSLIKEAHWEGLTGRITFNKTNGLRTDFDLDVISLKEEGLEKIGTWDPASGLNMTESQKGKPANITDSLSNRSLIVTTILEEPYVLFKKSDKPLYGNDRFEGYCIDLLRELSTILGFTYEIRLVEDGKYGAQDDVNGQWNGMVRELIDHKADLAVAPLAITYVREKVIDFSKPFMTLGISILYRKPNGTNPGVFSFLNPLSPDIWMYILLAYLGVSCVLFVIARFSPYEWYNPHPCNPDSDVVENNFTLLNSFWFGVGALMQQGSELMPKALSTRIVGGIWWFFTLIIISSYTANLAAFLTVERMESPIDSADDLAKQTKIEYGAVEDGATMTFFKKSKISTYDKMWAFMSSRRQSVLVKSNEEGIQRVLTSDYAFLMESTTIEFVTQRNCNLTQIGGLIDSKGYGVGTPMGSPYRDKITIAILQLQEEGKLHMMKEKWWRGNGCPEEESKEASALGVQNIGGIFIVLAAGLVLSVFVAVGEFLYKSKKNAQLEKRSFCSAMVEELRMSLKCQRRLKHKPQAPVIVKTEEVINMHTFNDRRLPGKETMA

As to “C-terminal myc-tagged GRIP(PDZ4-7) (domain or fragment)”, the amount coimmunoprecipitated with GluK2 when Neto2 is coexpressed, percent of signal in the absence of Neto2 (% of signal in the absence of Neto2) turned out to be 250 and the amount coimmunoprecipitated with GluK2 when Neto2Δ7 is coexpressed, percent of signal in the absence of Neto2 (% of signal in the absence of Neto2) was found to be 103.
